These are literature values, as cited in PMC9747160.

For the data set, the target named is APOBEC3B CTD (Homo sapiens) (UniProt Q9UH17). Nature of the data set: BLI.
Sequence of UniProt Q9UH17 (Q9UH17 187-382): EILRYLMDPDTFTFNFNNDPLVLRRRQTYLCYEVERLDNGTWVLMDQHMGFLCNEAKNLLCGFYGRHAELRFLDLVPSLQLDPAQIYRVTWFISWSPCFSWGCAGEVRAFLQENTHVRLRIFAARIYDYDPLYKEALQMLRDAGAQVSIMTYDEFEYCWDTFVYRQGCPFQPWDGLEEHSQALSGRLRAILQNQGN

Regarding BORF2 (from UniProt P03190), the Kd was 1 nM.

In general, Kd refers to the free concentration of one partner at which half of the binding sites on the other are occupied at equilibrium, for simple one-to-one binding.
